Target: complex I-containing supercomplex (human (endogenous in fibroblasts and HEK293)) (UniProt P56181)
Test: complexome profiling (blue native electrophoresis with mass spectrometry); mitochondria-enriched membranes of control fibroblast and control HEK293 cells, solubilised with detergent (digitonin for supercomplexes), 3% to 18% acrylamide blue native gel, gel bands or slices read by quantitative mass spectrometry; co-migration

Chain of UniProt P56181 (P56181 whole entry, looked up, one chain of several): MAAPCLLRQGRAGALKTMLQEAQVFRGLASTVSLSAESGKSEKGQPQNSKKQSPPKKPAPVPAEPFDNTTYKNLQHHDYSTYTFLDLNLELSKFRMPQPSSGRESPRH

B1: DNAJC30 (natural protein)
chain: SQGDCSYSRTALYDLLGVPSTATQAQIKAAYYRQCFLYHPDRNSGSAEAAERFTRISQAYVVLGSATLRRKYDRGLLSDEDLRGPGVRPSRTPAPDPGSPRTPPPTSRTHDGSRASPGANRTMFNFDAFYQAHYGEQLERERRLRARREALRKRQEYRSMKGLRWEDTRDTAAIFLIFSIFIIIGFYI
With B1 the ratio DNAJC30/complex I in the supercomplex (DNAJC30/complex I) was 0.005.
